Test results reported in patent US20240261333A1 (published 2024).

T1: MMS19 (human, UniProt Q96T76-9 2-987, limits assumed)
T1 construct: also called NP_001276332.1 (+9)
T1 sequence (looked up): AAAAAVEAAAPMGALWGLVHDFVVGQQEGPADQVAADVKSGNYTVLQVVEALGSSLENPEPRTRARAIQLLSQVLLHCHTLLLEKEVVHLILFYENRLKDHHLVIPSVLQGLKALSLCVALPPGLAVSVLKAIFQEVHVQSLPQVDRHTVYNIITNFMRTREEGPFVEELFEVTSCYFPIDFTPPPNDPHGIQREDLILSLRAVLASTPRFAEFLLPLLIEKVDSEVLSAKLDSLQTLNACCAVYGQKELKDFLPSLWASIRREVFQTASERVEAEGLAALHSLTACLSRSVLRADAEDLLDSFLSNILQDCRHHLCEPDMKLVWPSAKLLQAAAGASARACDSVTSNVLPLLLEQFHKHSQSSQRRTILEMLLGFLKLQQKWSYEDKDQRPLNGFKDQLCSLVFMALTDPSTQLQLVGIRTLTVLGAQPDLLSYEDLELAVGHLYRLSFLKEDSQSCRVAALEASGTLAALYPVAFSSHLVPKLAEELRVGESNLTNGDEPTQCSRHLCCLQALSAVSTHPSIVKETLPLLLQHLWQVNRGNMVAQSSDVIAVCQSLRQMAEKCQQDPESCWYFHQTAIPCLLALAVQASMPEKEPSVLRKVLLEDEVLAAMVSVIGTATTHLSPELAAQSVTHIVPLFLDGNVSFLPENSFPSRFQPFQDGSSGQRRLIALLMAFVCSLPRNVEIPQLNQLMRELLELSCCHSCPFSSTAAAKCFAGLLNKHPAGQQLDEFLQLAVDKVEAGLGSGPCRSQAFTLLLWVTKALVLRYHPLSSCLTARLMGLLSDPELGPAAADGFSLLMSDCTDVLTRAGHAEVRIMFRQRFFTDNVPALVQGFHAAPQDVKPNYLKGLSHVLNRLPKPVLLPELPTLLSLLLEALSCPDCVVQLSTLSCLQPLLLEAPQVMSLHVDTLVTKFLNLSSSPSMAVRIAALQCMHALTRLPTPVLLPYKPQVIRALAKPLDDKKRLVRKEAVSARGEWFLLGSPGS

T2: SBSN (human, UniProt Q6UWP8 26-590)
T2 construct: also called NP_00159506.1 (+2)
T2 sequence (looked up): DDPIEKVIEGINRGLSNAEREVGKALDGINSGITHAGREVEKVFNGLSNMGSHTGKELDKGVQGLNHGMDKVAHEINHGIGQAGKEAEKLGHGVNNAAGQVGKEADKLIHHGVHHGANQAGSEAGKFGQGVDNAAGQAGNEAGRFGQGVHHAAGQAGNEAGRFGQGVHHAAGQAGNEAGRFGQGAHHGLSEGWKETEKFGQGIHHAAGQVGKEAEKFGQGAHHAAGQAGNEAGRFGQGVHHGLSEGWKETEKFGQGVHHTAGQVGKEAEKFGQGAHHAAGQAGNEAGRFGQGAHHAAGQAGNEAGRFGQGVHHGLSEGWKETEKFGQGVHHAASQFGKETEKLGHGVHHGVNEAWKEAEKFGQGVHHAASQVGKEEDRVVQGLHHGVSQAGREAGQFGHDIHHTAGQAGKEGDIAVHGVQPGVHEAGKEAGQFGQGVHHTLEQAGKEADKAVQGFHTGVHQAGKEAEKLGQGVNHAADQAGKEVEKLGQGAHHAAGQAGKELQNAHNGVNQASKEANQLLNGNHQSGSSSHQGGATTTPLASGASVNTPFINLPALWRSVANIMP


Tests used:
Assay in all cases: co-IP with anti-FLAG, C-FLAG B3GNT2, mass spectrometry
LGALS7B = molecular target: T3, LGALS7B (human, UniProt P47929 1-136)
T3 construct: also called NP_001035972.1

YBX1 = molecular target: T4, YBX1 (human, UniProt P67809 2-324)
T4 construct: also called NP_004550.2

CLTC = molecular target: T5, CLTC (human, UniProt Q00610 2-1675, limits assumed)
T5 construct: also called NP_001275582.1 (+2)

P0AA25.2 = P0AA25.2 (UniProt P0AA25 2-109 = thioredoxin)
MMS19 = molecular target: T1, MMS19
SBSN = molecular target: T2, SBSN

T3 sequence (P47929 whole entry): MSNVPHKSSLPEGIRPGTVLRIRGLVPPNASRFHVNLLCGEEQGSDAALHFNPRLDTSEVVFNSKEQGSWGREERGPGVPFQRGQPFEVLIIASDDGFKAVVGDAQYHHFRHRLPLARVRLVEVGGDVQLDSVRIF
P0AA25.2, sequence (P0AA25 2-109, one chain of several): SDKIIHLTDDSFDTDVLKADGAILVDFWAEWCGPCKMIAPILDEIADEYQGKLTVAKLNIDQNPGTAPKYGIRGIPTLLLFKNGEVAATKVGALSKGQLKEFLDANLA
T4 sequence (P67809 2-324 limits assumed): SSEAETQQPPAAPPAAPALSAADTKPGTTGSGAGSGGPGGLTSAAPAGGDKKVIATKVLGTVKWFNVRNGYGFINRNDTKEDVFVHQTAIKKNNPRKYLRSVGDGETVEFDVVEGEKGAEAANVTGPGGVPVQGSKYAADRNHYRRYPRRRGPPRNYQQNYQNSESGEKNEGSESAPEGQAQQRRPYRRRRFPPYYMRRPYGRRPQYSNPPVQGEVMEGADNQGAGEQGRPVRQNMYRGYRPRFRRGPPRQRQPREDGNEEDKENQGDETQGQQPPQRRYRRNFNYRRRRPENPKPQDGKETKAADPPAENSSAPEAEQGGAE
T5 sequence (Q00610 2-1675 limits assumed): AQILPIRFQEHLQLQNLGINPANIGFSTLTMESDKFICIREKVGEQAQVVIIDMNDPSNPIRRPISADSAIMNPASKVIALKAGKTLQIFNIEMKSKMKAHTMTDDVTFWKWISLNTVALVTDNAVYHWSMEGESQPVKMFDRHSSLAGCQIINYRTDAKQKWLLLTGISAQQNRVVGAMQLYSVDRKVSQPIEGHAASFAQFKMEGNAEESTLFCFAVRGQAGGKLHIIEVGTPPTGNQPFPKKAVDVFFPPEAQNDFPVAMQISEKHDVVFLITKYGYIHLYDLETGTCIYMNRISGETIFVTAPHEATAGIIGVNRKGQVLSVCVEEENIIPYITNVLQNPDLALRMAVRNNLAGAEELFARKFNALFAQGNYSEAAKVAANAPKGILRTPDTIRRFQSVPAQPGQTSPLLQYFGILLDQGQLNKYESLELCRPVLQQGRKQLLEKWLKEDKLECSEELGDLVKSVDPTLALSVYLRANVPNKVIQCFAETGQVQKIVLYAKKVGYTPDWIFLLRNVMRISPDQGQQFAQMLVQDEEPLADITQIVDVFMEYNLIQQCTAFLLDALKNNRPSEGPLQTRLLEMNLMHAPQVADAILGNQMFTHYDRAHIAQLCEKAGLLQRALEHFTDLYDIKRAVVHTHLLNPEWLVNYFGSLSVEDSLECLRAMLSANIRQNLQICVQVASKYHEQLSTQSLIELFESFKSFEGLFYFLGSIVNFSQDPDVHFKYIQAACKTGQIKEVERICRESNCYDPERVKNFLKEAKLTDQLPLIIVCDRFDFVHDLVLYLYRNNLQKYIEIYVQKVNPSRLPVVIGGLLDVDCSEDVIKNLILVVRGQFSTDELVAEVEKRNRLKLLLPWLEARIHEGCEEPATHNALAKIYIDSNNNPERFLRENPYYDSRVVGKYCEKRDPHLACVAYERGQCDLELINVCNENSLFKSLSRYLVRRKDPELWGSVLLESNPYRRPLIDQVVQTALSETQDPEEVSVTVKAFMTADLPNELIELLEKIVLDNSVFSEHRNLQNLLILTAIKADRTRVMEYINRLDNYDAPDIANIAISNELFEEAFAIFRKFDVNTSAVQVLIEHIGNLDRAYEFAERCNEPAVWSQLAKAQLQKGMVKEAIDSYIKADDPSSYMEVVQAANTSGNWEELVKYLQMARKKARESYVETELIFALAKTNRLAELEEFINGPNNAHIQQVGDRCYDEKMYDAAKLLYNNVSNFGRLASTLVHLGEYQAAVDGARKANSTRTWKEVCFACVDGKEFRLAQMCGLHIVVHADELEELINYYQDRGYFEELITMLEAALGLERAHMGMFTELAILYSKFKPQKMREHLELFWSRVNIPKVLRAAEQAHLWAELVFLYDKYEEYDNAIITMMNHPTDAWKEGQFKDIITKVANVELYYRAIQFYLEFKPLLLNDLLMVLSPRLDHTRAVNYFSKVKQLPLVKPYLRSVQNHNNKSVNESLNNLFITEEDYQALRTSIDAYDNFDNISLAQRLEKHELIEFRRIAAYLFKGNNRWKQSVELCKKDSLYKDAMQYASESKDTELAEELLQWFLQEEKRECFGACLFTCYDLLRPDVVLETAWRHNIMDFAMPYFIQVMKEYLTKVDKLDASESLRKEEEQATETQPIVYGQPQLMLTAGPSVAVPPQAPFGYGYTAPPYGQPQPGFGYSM

Binder | co-IP mass spectrometry count (LGALS7B) | co-IP mass spectrometry count (YBX1) | co-IP/MS count, C-term flag (CLTC) | co-IP/MS count, C-term flag (P0AA25.2) | co-IP/MS count, C-term flag (MMS19) | co-IP/MS count, C-term flag (SBSN)
C-terminal FLAG tagged B3GNT2 (enzyme, human, UniProt Q9NY97 1-397, looked up, FLAG-tagged ORF overexpressed in cells; pulled down from lysate with mouse anti-FLAG; also called C-FLAG B3GNT2; C-term flag; not shown: C-terminal FLAG tag) MSVGRRRIKLLGILMMANVFIYFIMEVSKSSSQEKNGKGEVIIPKEKFWKISTPPEAYWNREQEKLNRQYNPILSMLTNQTGEAGRLSNISHLNYCEPDLRVTSVVTGFNNLPDRFKDFLLYLRCRNYSLLIDQPDKCAKKPFLLLAIKSLTPHFARRQAIRESWGQESNAGNQTVVRVFLLGQTPPEDNHPDLSDMLKFESEKHQDILMWNYRDTFFNLSLKEVLFLRWVSTSCPDTEFVFKGDDDVFVNTHHILNYLNSLSKTKAKDLFIGDVIHNAGPHRDKKLKYYIPEVVYSGLYPPYAGGGGFLYSGHLALRLYHITDQVHLYPIDDVYTGMCLQKLGLVPEKHKGFRTFDIEEKNKNNICSYVDLMLVHSRKPQEMIDIWSQLQSAHLKC | 4 | 9 | – | – | – | –
C-terminal FLAG tagged B3GNT2 (enzyme, human, UniProt Q9NY97 1-397, looked up, FLAG-tagged ORF overexpressed in A375 cells; pulled down from the lysate with mouse anti-FLAG; also called C-FLAG B3GNT2; C-term flag; not shown: C-terminal FLAG tag) MSVGRRRIKLLGILMMANVFIYFIMEVSKSSSQEKNGKGEVIIPKEKFWKISTPPEAYWNREQEKLNRQYNPILSMLTNQTGEAGRLSNISHLNYCEPDLRVTSVVTGFNNLPDRFKDFLLYLRCRNYSLLIDQPDKCAKKPFLLLAIKSLTPHFARRQAIRESWGQESNAGNQTVVRVFLLGQTPPEDNHPDLSDMLKFESEKHQDILMWNYRDTFFNLSLKEVLFLRWVSTSCPDTEFVFKGDDDVFVNTHHILNYLNSLSKTKAKDLFIGDVIHNAGPHRDKKLKYYIPEVVYSGLYPPYAGGGGFLYSGHLALRLYHITDQVHLYPIDDVYTGMCLQKLGLVPEKHKGFRTFDIEEKNKNNICSYVDLMLVHSRKPQEMIDIWSQLQSAHLKC | – | – | 7 | 7 | 0 | 25
